Experiments:
PARP2 [1] = molecular target: PARP2 (UniProt Q9UGN5-2 1-570); assay: EMSA
PARP2 [2] = molecular target: PARP2 (human (from the printed UniProt …, UniProt Q9UGN5-2 1-570)); assay: cryo-EM structure

| binding result (PARP2 [2]) | Binder | binding result (PARP2 [1]) |
| --- | --- | --- |
|  | TCGCGGCAGCTGGTGCTGCCGCGA (structured_DNA, 5' phosphate) [hairpin DNA 5'P] | binds |
| binds | HPF1 (natural protein) MVGGGGKRRPGGEGPQCEKTTDVKKSKFCEADVSSDLRKEVENHYKLSLPEDFYHFWKFCEELDPEKPSDSLSASLGLQLVGPYDILAGKHKTKKKSTGLNFNLHWRFYYDPPEFQTIIIGDNKTQYHMGYFRDSPDEFPVYVGINEAKKNCIIVPNGDNVFAAVKLFLTKKLREITDKKKINLLKNIDEKLTEAARELGYSLEQRTVKMKQRDKKVVTKTFHGAGLVVPVDKNDVGYRELPETDADLKRICKTIVEAASDEERLKAFAPIQEMMTFVQFANDECDYGMGLELGMDLFCYGSHYFHKVAGQLLPLAYNLLKRNLFAEIIEEHLANRSQENIDQLAA |  |

Reference: PMC7529888 (Nature, 2020)
